Legend:
[1] = system: S. pombe Translin (Schizosaccharomyces pombe); assay: EMSA
[2] = target: recombinant S.pombe Translin (S. pombe); assay: glycerol gradient centrifugation
human Translin = human Translin (Homo sapiens, UniProt Q15631 1-228); assay: EMSA
Chain of human Translin (Q15631 whole entry): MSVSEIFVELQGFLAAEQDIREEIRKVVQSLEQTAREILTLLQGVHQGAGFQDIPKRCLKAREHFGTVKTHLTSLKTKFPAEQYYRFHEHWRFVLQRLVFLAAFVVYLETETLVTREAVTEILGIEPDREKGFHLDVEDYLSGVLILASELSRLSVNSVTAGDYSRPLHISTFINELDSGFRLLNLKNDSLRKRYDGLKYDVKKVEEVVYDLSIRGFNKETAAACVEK

Molecule | Kd [1] | further results
GTGTGTGTGTGTGTGTGTGTGTGTGTGTGT [d(GT)15] | 18 nM | 
GUGUGUGUGUGUGUGUGUGUGUGUGUGUGU [(GU)15] | 3 nM | 
recombinant S.pombe Translin (natural protein) |  | stoichiometry N [2]: 8
GTGTGTGTGTGTGTGTGTGTGTGTGTGTGT (ssDNA) [d(GT)15] |  | binding signal (human Translin): ~2 Kd relative to (GU)15
